In patent US20140363844:

Assays:
[1] = biological target: T1, Presegetalin A1[14,32]V15A
T1 chain: GAPVWAFQAKDVENASAPV

[2] = biological target: T2, Presegetalin A1[14,32] ins 16A17
T2 chain: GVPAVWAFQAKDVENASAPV

[3] = biological target: T3, Dianthus Precursor B[14,32]
T3 chain: GYKDCCVQAKDLENAAVPV

[4] = biological target: T4, Presegetalin A1[14,32]V17A
T4 chain: GVPAWAFQAKDVENASAPV

[5] = biological target: T5, Presegetalin A1[14,32] P16p W18A
T5 chain: GVPVAAFQAKDVENASAPV

Presegetalin F1[14,38] = biological target: T6, Presegetalin F1[14,38]
T6 chain: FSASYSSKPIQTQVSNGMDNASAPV

[6] = biological target: T7, Presegetalin A1[14,32]A28V
T7 chain: GVPVWAFQAKDVENVSAPV

[7] = biological target: T8, Presegetalin A1[14,32]V17v
T8 chain: GVPVWAFQAKDVENASAPV

[8] = biological target: T9, Presegetalin A1[14,32]V15v
T9 chain: GVPVWAFQAKDVENASAPV

Presegetalin L1[14,32] = biological target: T10, Presegetalin L1[14,32]
T10 chain: GLPGWPFQAKDVENASAPV

[9] = biological target: T11, Presegetalin A1[14,32]N27A
T11 chain: GVPVWAFQAKDVEAASAPV

[10] = biological target: T12, Presegetalin A1[14,32]A19a
T12 chain: GVPVWAFQAKDVENASAPV

[11] = biological target: T13, Presegetalin A1[14,32] ins 16AAA17
T13 chain: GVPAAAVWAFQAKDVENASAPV

Presegetalin A1[14,28] = biological target: T14, Presegetalin A1[14,28]
T14 chain: GVPVWAFQAKDVENA

[12] = biological target: T15, Presegetalin A1[14,32]V32A
T15 chain: GVPVWAFQAKDVENASAPA

Presegetalin J1[14,36] = biological target: T16, Presegetalin J1[14,36]
T16 chain: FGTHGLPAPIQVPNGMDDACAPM

[13] = biological target: T17, Presegetalin D1[14,31]P20Q
T17 chain: GLSFAFQAKDAENASSPV

[14] = biological target: T18, Dianthus Precursor A[14,33]
T18 chain: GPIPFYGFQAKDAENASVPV

[15] = biological target: T19, Presegetalin A1[14,32]W18A
T19 chain: GVPVAAFQAKDVENASAPV

Presegetalin A1[14,32] = biological target: T20, Presegetalin A1[14,32]
T20 chain: GVPVWAFQAKDVENASAPV

Presegetalin H1[14,31] = biological target: T21, Presegetalin H1[14,31]
T21 chain: GYRFSFQAKDAENASAPV

[16] = biological target: T22, Presegetalin A1[14,32]V25A
T22 chain: GVPVWAFQAKDAENASAPV

Presegetalin A1[14,19] = biological target: T23, Presegetalin A1[14,19]
T23 chain: GVPVWA

Presegetalin A1[14,20] = biological target: T24, Presegetalin A1[14,20]
T24 chain: GVPVWAF

Presegetalin D1[14,31] = biological target: T25, Presegetalin D1[14,31]
T25 chain: GLSFAFPAKDAENASSPV

[17] = biological target: T26, Presegetalin A1[14,32]S29A
T26 chain: GVPVWAFQAKDVENAAAPV

Presegetalin A1[14,24] = biological target: T27, Presegetalin A1[14,24]
T27 chain: GVPVWAFQAKD

[18] = biological target: T28, Presegetalin A1[14,32]A22V
T28 chain: GVPVWAFQVKDVENASAPV

[19] = biological target: T29, Presegetalin A1[14,32]P16p
T29 chain: GVPVWAFQAKDVENASAPV

[20] = biological target: T30, Presegetalin A1[14,32]P16A
T30 chain: GVAVWAFQAKDVENASAPV

[21] = biological target: T31, Presegetalin A1[14,32]P31A
T31 chain: GVPVWAFQAKDVENASAAV

[22] = biological target: T32, Presegetalin A1[14,32] P16p W18a
T32 chain: GVPVAAFQAKDVENASAPV

[23] = biological target: T33, Presegetalin A1[14,32]D24A
T33 chain: GVPVWAFQAKAVENASAPV

Presegetalin A1[14,30] = biological target: T34, Presegetalin A1[14,30]
T34 chain: GVPVWAFQAKDVENAPV

[24] = biological target: T35, Presegetalin A1[14,32]K23A
T35 chain: GVPVWAFQAADVENASAPV

B1: Saponaria vaccaria PCY1 (recombinant, N-terminal His6-tag, expressed in E. coli from pCB008) (protein)
chain: MATSGFSKPLHYPPVRRDETVVDDYFGVKVADPYRWLEDPNSEETKEFVDNQEKLANSVLEECELIDKFKQKIIDFVNFPRCGVPFRRANKYFHFYNSGLQAQNVFQMQDDLDGKPEVLYDPNLREGGRSGLSLYSVSEDAKYFAFGIHSGLTEWVTIKILKTEDRSYLPDTLEWVKFSPAIWTHDNKGFFYCPYPPLKEGEDHMTRSAVNQEARYHFLGTDQSEDILLWRDLENPAHHLKCQITDDGKYFLLYILDGCDDANKVYCLDLTKLPNGLESFRGREDSAPFMKLIDSFDASYTAIANDGSVFTFQTNKDAPRKKLVRVDLNNPSVWTDLVPESKKDLLESAHAVNENQLILRYLSDVKHVLEIRDLESGALQHRLPIDIGSVDGITARRRDSVVFFKFTSILTPGIVYQCDLKNDPTQLKIFRESVVPDFDRSEFEVKQVFVPSKDGTKIPIFIAARKGISLDGSHPCEMHGYGGFGINMMPTFSASRIVFLKHLGGVFCLANIRGGGEYGEEWHKAGFRDKKQNVFDDFISAAEYLISSGYTKARRVAIEGGSNGGLLVAACINQRPDLFGCAEANCGVMDMLRFHKFTLGYLWTGDYGCSDKEEEFKWLIKYSPIHNVRRPWEQPGNEETQYPATMILTADHDDRVVPLHSFKLLATMQHVLCTSLEDSPQKNPIIARIQRKAAHYGRATMTQIAEVADRYGFMAKALEAPWID
CP (cyclic peptide product detected by LC/MS) [1]: +
LP (linear peptide product detected by LC/MS) [1]: +
CP (cyclic peptide product detected by LC/MS) [2]: +
LP (linear peptide product detected by LC/MS) [2]: +
CP (cyclic peptide product detected by LC/MS) [3]: -
LP (linear peptide product detected by LC/MS) [3]: -
CP (cyclic peptide product detected by LC/MS) [4]: +
LP (linear peptide product detected by LC/MS) [4]: +
CP (cyclic peptide product detected by LC/MS) [5]: +
LP (linear peptide product detected by LC/MS) [5]: -
CP (cyclic peptide product detected by LC/MS) (Presegetalin F1[14,38]): +
LP (linear peptide product detected by LC/MS) (Presegetalin F1[14,38]): -
CP (cyclic peptide product detected by LC/MS) [6]: +
LP (linear peptide product detected by LC/MS) [6]: +
linear segetalin A production relative to WT substrate [6]: showed a relative increase in production of linear segetalin A
segetalin A production relative to WT substrate [6]: positions were found to be sensitive to substitution ... position 20, 21, 23, 24, 27, 28 and 31
CP (cyclic peptide product detected by LC/MS) [7]: +
LP (linear peptide product detected by LC/MS) [7]: -
CP (cyclic peptide product detected by LC/MS) [8]: +
LP (linear peptide product detected by LC/MS) [8]: +
CP (cyclic peptide product detected by LC/MS) (Presegetalin L1[14,32]): +
LP (linear peptide product detected by LC/MS) (Presegetalin L1[14,32]): -
CP (cyclic peptide product detected by LC/MS) [9]: +
LP (linear peptide product detected by LC/MS) [9]: +
linear segetalin A production relative to WT substrate [9]: showed a relative increase in production of linear segetalin A
segetalin A production relative to WT substrate [9]: positions were found to be sensitive to substitution ... position 20, 21, 23, 24, 27, 28 and 31
CP (cyclic peptide product detected by LC/MS) [10]: -
LP (linear peptide product detected by LC/MS) [10]: -
CP (cyclic peptide product detected by LC/MS) [11]: +
LP (linear peptide product detected by LC/MS) [11]: +
CP (cyclic peptide product detected by LC/MS) (Presegetalin A1[14,28]): -
LP (linear peptide product detected by LC/MS) (Presegetalin A1[14,28]): +
linear peptide formation (LC/MS, MS/MS) (Presegetalin A1[14,28]): showed linear peptide formation almost equivalent to the linear peptide formed from the WT substrate (No. 1)
CP (cyclic peptide product detected by LC/MS) [12]: +
LP (linear peptide product detected by LC/MS) [12]: +
linear segetalin A production relative to WT substrate [12]: showed a relative increase in production of linear segetalin A
CP (cyclic peptide product detected by LC/MS) (Presegetalin J1[14,36]): +
LP (linear peptide product detected by LC/MS) (Presegetalin J1[14,36]): -
CP (cyclic peptide product detected by LC/MS) [13]: +
LP (linear peptide product detected by LC/MS) [13]: -
cyclic peptide product (LC/MS) [13]: resulted in a 5 amino acid cyclic peptide product (cyclo(GLSFA); SEQ ID NO: 77), and the substituted glutamine was not part of the final cyclic peptide
CP (cyclic peptide product detected by LC/MS) [14]: +
LP (linear peptide product detected by LC/MS) [14]: -
cyclic peptide product (LC/MS, MS/MS) [14]: there was a small amount of cyclic peptide production from No. 43
CP (cyclic peptide product detected by LC/MS) [15]: +
LP (linear peptide product detected by LC/MS) [15]: -
CP (cyclic peptide product detected by LC/MS) (Presegetalin A1[14,32]): +
LP (linear peptide product detected by LC/MS) (Presegetalin A1[14,32]): +
PCY1 activity (total amount of segetalin A produced) (Presegetalin A1[14,32]): 3 nmol/mg of protein/min
formation of segetalin A and linear segetalin A (LC/MS) (Presegetalin A1[14,32]): purified PCY1 showed the formation of segetalin A and linear segetalin A in the presence of presegetalin A1[14,32]
CP (cyclic peptide product detected by LC/MS) (Presegetalin H1[14,31]): +
LP (linear peptide product detected by LC/MS) (Presegetalin H1[14,31]): -
CP (cyclic peptide product detected by LC/MS) [16]: +
LP (linear peptide product detected by LC/MS) [16]: +
linear segetalin A production relative to WT substrate [16]: showed a relative increase in production of linear segetalin A
segetalin A production relative to WT substrate [16]: substitutions at positions 25, 26 and 29 (No. 18, 19 and 22) yielded relatively higher amounts of segetalin A than that produced from WT substrate
CP (cyclic peptide product detected by LC/MS) (Presegetalin A1[14,19]): -
CP (cyclic peptide product detected by LC/MS) (Presegetalin A1[14,20]): -
LP (linear peptide product detected by LC/MS) (Presegetalin A1[14,20]): -
CP (cyclic peptide product detected by LC/MS) (Presegetalin D1[14,31]): +
LP (linear peptide product detected by LC/MS) (Presegetalin D1[14,31]): +
CP (cyclic peptide product detected by LC/MS) [17]: +
LP (linear peptide product detected by LC/MS) [17]: +
linear segetalin A production relative to WT substrate [17]: showed a relative increase in production of linear segetalin A
segetalin A production relative to WT substrate [17]: yielded a 30% increase in segetalin A production relative to wild type presegetalin A1[14,32]
CP (cyclic peptide product detected by LC/MS) (Presegetalin A1[14,24]): -
LP (linear peptide product detected by LC/MS) (Presegetalin A1[14,24]): +
linear peptide formation (LC/MS, MS/MS) (Presegetalin A1[14,24]): showed linear peptide formation almost equivalent to the linear peptide formed from the WT substrate (No. 1)
CP (cyclic peptide product detected by LC/MS) [18]: +
LP (linear peptide product detected by LC/MS) [18]: +
linear segetalin A production relative to WT substrate [18]: showed a relative increase in production of linear segetalin A
CP (cyclic peptide product detected by LC/MS) [19]: +
LP (linear peptide product detected by LC/MS) [19]: -
CP (cyclic peptide product detected by LC/MS) [20]: +
LP (linear peptide product detected by LC/MS) [20]: +
CP (cyclic peptide product detected by LC/MS) [21]: +
LP (linear peptide product detected by LC/MS) [21]: +
linear segetalin A production relative to WT substrate [21]: showed a relative increase in production of linear segetalin A
segetalin A production relative to WT substrate [21]: the P31A mutant (No. 24 in Table 3) was found to yield […]11 times less segetalin A than that produced from the WT substrate
CP (cyclic peptide product detected by LC/MS) [22]: +
LP (linear peptide product detected by LC/MS) [22]: -
CP (cyclic peptide product detected by LC/MS) [23]: +
LP (linear peptide product detected by LC/MS) [23]: +
linear segetalin A production relative to WT substrate [23]: showed a relative increase in production of linear segetalin A
segetalin A production relative to WT substrate [23]: segetalin A production was found to be ≧42 times lower than the WT substrate
CP (cyclic peptide product detected by LC/MS) (Presegetalin A1[14,30]): -
LP (linear peptide product detected by LC/MS) (Presegetalin A1[14,30]): +
linear peptide formation (LC/MS, MS/MS) (Presegetalin A1[14,30]): showed linear peptide formation almost equivalent to the linear peptide formed from the WT substrate (No. 1)
CP (cyclic peptide product detected by LC/MS) [24]: +
LP (linear peptide product detected by LC/MS) [24]: +
linear segetalin A production relative to WT substrate [24]: showed a relative increase in production of linear segetalin A
segetalin A production relative to WT substrate [24]: positions were found to be sensitive to substitution ... position 20, 21, 23, 24, 27, 28 and 31
